Experiments:
[1] = biological target: T1, recombinant Smurf1 protein (UniProt Q9HCE7 1-757); assay: SPR
T1 chain: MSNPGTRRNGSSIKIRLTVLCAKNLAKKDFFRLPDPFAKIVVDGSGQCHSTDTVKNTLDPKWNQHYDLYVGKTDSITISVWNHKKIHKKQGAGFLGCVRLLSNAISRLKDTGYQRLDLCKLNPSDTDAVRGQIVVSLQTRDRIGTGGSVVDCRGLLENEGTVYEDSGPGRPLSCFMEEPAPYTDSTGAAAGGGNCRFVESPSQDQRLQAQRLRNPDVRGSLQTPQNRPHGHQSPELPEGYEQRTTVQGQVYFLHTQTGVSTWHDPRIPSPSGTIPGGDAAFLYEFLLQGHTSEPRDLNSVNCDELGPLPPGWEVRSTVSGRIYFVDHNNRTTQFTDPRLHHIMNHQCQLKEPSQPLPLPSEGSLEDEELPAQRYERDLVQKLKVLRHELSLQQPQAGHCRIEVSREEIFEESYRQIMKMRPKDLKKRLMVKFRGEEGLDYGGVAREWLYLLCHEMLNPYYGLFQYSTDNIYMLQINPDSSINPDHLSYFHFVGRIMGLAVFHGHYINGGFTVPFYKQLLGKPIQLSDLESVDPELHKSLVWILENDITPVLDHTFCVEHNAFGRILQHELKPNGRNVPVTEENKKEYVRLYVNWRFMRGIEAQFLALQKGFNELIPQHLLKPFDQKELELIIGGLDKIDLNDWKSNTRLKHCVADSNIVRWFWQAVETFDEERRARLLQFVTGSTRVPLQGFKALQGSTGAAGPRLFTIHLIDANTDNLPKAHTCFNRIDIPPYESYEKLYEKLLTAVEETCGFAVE

[2] = biological target: T2, recombinant Smurf1 protein (UniProt Q9HCE7 1-757); assay: SPR; recombinant Smurf1 immobilised on a CM5 sensor chip by amine coupling; TRIB3 protein applied at 31 nM to 8 uM; Biacore T200, kinetics model; conditions: both partners purified
T2 construct: Smad ubiquitination regulatory factor 1 (Smurf1), recombinant protein immobilised on a CM5 chip for SPR; also called Smad ubiquitination regulatory factor 1; E3 ubiquitin-protein ligase Smurf1

B1: recombinant TRIB3 protein (natural protein, UniProt Q96RU7 1-358, looked up)
chain: MRATPLAAPAGSLSRKKRLELDDNLDTERPVQKRARSGPQPRLPPCLLPLSPPTAPDRATAVATASRLGPYVLLEPEEGGRAYQALHCPTGTEYTCKVYPVQEALAVLEPYARLPPHKHVARPTEVLAGTQLLYAFFTRTHGDMHSLVRSRHRIPEPEAAVLFRQMATALAHCHQHGLVLRDLKLCRFVFADRERKKLVLENLEDSCVLTGPDDSLWDKHACPAYVGPEILSSRASYSGKAADVWSLGVALFTMLAGHYPFQDSEPVLLFGKIRRGAYALPAGLSAPARCLVRCLLRREPAERLTATGILLHPWLRQDPMPLAPTRSHLWEAAQVVPDGLGLDEAREEEGDREVVLYG
notes: Tribbles homolog 3 (TRIB3), recombinant protein flowed over the chip in SPR; also called tribbles homolog 3
[1]
  koff: 0.0015 s⁻¹
[2]
  Kd: 1030 nM

— publication PMC11957692, “TRIB3 mediates vascular calcification by facilitating self-ubiquitination and dissociation of Smurf1 in chronic kidney disease” (The Journal of Clinical Investigation, 2025)
